# Reference: paper PMC9021188 (2022)
# Like-named read-outs stand apart in the source and are kept apart here.
# B1: GW01 (antibody, V domains shown)
# VH: EVQLVESGGGVVQPGGSLRLSCAASGFRFDDHAMHWVRQAPGKGLEWVSVISGDGGSTYYADSVKGRFSISRDDSKNSLYLQMNSLRTEDTALYYCAKDRSYGPPDVFNYEYGMDVWGQGTTVTVSS
# VL: not shown
# Experiments:
# Experiment in all cases: BLI
# RaTG13 RBD protein [1] = biological target: RaTG13 RBD protein (RaTG13)
# GD-pangolin RBD protein = GD-pangolin RBD protein (pangolin-CoV-GD)
# SARS-CoV RBD protein = SARS-CoV RBD protein (SARS-CoV, UniProt P59594)
# GX-pangolin RBD protein = GX-pangolin RBD protein (pangolin-CoV-GX)
# RaTG13 RBD protein [2] = biological target: RaTG13 RBD protein (RaTG13); remark: listed apart in the source
binder,measurement,setting,value
B1,Kd,RaTG13 RBD protein [1],14.2 nM
same,Kd,GD-pangolin RBD protein,4.05 nM
same,Kd,SARS-CoV RBD protein,1.49 nM
same,Kd,GX-pangolin RBD protein,7.42 nM
same,Kd,RaTG13 RBD protein [2],14.4 nM
